According to patent EP4700040A1, “PEPTIDE AND LUMINESCENT COMPLEX CONTAINING SAME” (Shenzhen Loggene Life Science & Technology Co., Ltd., priority 2023, dated 2024):

target: Large subunit-rSCFV5 fusion protein; experiment: cell-based or functional assay
Sequence (chain, as listed by the source): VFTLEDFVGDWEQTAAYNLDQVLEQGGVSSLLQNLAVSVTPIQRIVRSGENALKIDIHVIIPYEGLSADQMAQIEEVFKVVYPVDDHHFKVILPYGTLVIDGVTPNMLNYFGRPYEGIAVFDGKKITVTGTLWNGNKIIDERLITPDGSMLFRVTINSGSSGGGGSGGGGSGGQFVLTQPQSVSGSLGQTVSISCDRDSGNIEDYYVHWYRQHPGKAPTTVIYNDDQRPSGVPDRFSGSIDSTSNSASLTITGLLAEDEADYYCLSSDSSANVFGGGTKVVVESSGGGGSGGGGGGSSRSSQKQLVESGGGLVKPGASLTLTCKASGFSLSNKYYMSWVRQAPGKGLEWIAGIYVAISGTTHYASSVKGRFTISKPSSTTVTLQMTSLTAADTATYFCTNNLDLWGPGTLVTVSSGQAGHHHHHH

| Signal-to-noise ratio at 1000 pg/ml | normalised luminescence at PCT 0 pg/ml | normalised luminescence at PCT 1.1 pg/ml | normalised luminescence at PCT 3.3 pg/ml | normalised luminescence at PCT 10 pg/ml | normalised luminescence at PCT 100 pg/ml | normalised luminescence at PCT 1000 pg/ml | normalised luminescence at PCT 10000 pg/ml | normalised luminescence at PCT 100000 pg/ml | Binder |
| --- | --- | --- | --- | --- | --- | --- | --- | --- | --- |
| 18 | 5000 | 4900 | 5260 | 5860 | 13400 | 90100 | 695000 | 2e+06 | VSGWRIHEKIS (peptide, part only; not given: rSCFV18 scFv part, part only) [rSCFV18-small subunit mutant fusion protein RA120] |
| 4.9 | 5000 | 5090 | 5290 | 5530 | 7040 | 24700 | 188000 | 862000 | VEGYRLFNKEW (peptide, part only; not given: rSCFV18 scFv part, part only) [rSCFV18-small subunit mutant fusion protein RB284] |
| 8.6 | 5000 | 4930 | 5410 | 6020 | 8680 | 42800 | 333000 | 1.4e+06 | VDGWRLHEKIS (peptide, part only; not given: rSCFV18 scFv part, part only) [rSCFV18-small subunit mutant fusion protein RA141] |
| 11.5 | 5000 | 5530 | 5620 | 5990 | 11000 | 57600 | 466000 | 2.17e+06 | VEGYRLFDKKW (peptide, part only; not given: rSCFV18 scFv part, part only) [rSCFV18-small subunit mutant fusion protein RB239] |

target: Large subunit-rSCFV5 fusion protein; experiment: cell-based or functional assay; remark: another data set of the same source

| Binder | complementary activity, luminescence at 3 min | complementary activity, luminescence at 6 min | RLU, PCT+ | RLU, PCT- | Signal-to-noise ratio | Signal-to-noise ratio at 1000 pg/ml | normalised luminescence at PCT 0.0 pg/ml | normalised luminescence at PCT 1 pg/ml | normalised luminescence at PCT 3 pg/ml | normalised luminescence at PCT 10 pg/ml |
| --- | --- | --- | --- | --- | --- | --- | --- | --- | --- | --- |
| VSGYRLFDRKW (peptide, part only; not given: rSCFV18 scFv part, part only) [rSCFV18-small subunit mutant fusion protein RC-033] |  |  | 8510 RLU | 820 RLU | 10.4 |  |  |  |  |  |
| VSGWRIFDRKS (peptide, part only; not given: rSCFV18 scFv part, part only) [rSCFV18-small subunit mutant fusion protein RC-041] |  |  | 11800 RLU | 2500 RLU | 4.7 |  |  |  |  |  |
| VSGWRIHEKIS (peptide, part only; not given: rSCFV18 scFv part, part only) [rSCFV18-small subunit mutant fusion protein RA120] |  |  | 81100 RLU | 2140 RLU | 36.9 |  |  |  |  |  |
| VEGYRLHEKIS (peptide, part only; not given: rSCFV18 scFv part, part only) [rSCFV18-small subunit mutant fusion protein RA128] |  |  | 17900 RLU | 387 RLU | 45.2 |  |  |  |  |  |
| VEGYRLFEKKL (peptide, part only; not given: rSCFV18 scFv part, part only) [rSCFV18-small subunit mutant fusion protein RB149] |  |  | 79100 RLU | 3590 RLU | 21 |  |  |  |  |  |
| VEGYRLFNRKW (peptide, part only; not given: rSCFV18 scFv part, part only) [rSCFV18-small subunit mutant fusion protein RB223] |  |  | 39200 RLU | 1100 RLU | 34.7 |  |  |  |  |  |
| VEGYRLFNKEW (peptide, part only; not given: rSCFV18 scFv part, part only) [rSCFV18-small subunit mutant fusion protein RB284] |  |  | 3990 RLU | 302 RLU | 12.2 |  |  |  |  |  |
| VEGYRLFDRKW (peptide, part only; not given: rSCFV18 scFv part, part only) [rSCFV18-small subunit mutant fusion protein RB186] |  |  | 27200 RLU | 590 RLU | 45.1 |  |  |  |  |  |
| VEGYRLFDRVW (peptide, part only; not given: rSCFV18 scFv part, part only) [rSCFV18-small subunit mutant fusion protein RB128] |  |  | 26200 RLU | 658 RLU | 38.8 |  |  |  |  |  |
| VDGWRLHEKIS (peptide, part only; not given: rSCFV18 scFv part, part only) [rSCFV18-small subunit mutant fusion protein RA141] |  |  | 30600 RLU | 463 RLU | 65.1 |  |  |  |  |  |
| VEGYRLFDKKW (peptide, part only; not given: rSCFV18 scFv part, part only) [rSCFV18-small subunit mutant fusion protein RB239] |  |  | 31900 RLU | 465 RLU | 67.7 | 31.1 |  |  |  |  |
| VEGYRLFEKVW (peptide, part only; not given: rSCFV18 scFv part, part only) [rSCFV18-small subunit mutant fusion protein RB172] |  |  | 41400 RLU | 1090 RLU | 36.9 |  |  |  |  |  |
| VEGYRLFERVL (peptide, part only; not given: rSCFV18 scFv part, part only) [rSCFV18-small subunit mutant fusion protein RB150] |  |  | 53900 RLU | 1630 RLU | 32.1 |  |  |  |  |  |
| VEGYRLFNRVS (peptide, part only; not given: rSCFV18 scFv part, part only) [rSCFV18-small subunit mutant fusion protein RB027] |  |  | 102000 RLU | 4320 RLU | 22.6 |  |  |  |  |  |
| VEGYRLFKREL (peptide, part only; not given: rSCFV18 scFv part, part only) [rSCFV18-small subunit mutant fusion protein RB152] |  |  | 37200 RLU | 906 RLU | 40 |  |  |  |  |  |
| VEGYRLFNRVG (peptide, part only; not given: rSCFV18 scFv part, part only) [rSCFV18-small subunit mutant fusion protein RB122] |  |  | 55400 RLU | 2600 RLU | 20.2 |  |  |  |  |  |

Now from value to binder:

| complementary activity, luminescence at 3 min | complementary activity, luminescence at 6 min | RLU, PCT+ | RLU, PCT- | Signal-to-noise ratio | Signal-to-noise ratio at 1000 pg/ml | normalised luminescence at PCT 0.0 pg/ml | normalised luminescence at PCT 1 pg/ml | normalised luminescence at PCT 3 pg/ml | normalised luminescence at PCT 10 pg/ml | Binder |
| --- | --- | --- | --- | --- | --- | --- | --- | --- | --- | --- |
| 4900 RLU | 4540 RLU |  |  |  |  |  |  |  |  | IEGYRLFDRKS (peptide, part only; not given: scFv part; template fusion not stated, part only) [small subunit mutant fusion protein RD-092] |
|  |  | 4770 RLU | 685 RLU | 7 | 5.8 | 5000 | 5130 | 5230 | 5190 | VDGYRLFEKVS (peptide, part only; not given: rSCFV18 scFv part, part only) [rSCFV18-small subunit mutant fusion protein RC-263] |
|  |  | 9040 RLU | 1520 RLU | 5.9 |  |  |  |  |  | VNGWRIFDKKS (peptide, part only; not given: rSCFV18 scFv part, part only) [rSCFV18-small subunit mutant fusion protein RC-242] |
|  |  | 5000 RLU | 438 RLU | 11.4 | 5.5 | 5000 | 4670 | 4640 | 4830 | VEGYRIFEKKW (peptide, part only; not given: rSCFV18 scFv part, part only) [rSCFV18-small subunit mutant fusion protein RC-286] |
| 3390 RLU | 3220 RLU |  |  |  |  |  |  |  |  | AEGYRLFDRKS (peptide, part only; not given: scFv part; template fusion not stated, part only) [small subunit mutant fusion protein RD-086] |
|  |  | 9280 RLU | 1230 RLU | 7.5 |  |  |  |  |  | VSGWRIFDKKS (peptide, part only; not given: rSCFV18 scFv part, part only) [rSCFV18-small subunit mutant fusion protein RC-124] |
|  |  | 8200 RLU | 808 RLU | 10.1 |  |  |  |  |  | VEGYRLFERKS (peptide, part only; not given: rSCFV18 scFv part, part only) [rSCFV18-small subunit mutant fusion protein RC-145] |
|  |  | 18300 RLU | 3180 RLU | 5.8 |  |  |  |  |  | VEGWRLFDRKS (peptide, part only; not given: rSCFV18 scFv part, part only) [rSCFV18-small subunit mutant fusion protein RC-232] |
|  |  | 10400 RLU | 1300 RLU | 8 |  |  |  |  |  | VSGYRIFDKKS (peptide, part only; not given: rSCFV18 scFv part, part only) [rSCFV18-small subunit mutant fusion protein RC-044] |
|  |  | 6210 RLU | 1180 RLU | 5.3 |  |  |  |  |  | VSGYRIFEKKW (peptide, part only; not given: rSCFV18 scFv part, part only) [rSCFV18-small subunit mutant fusion protein RC-113] |
| 221 RLU | 52 RLU |  |  |  |  |  |  |  |  | AEPYRIFDRKS (peptide, part only; not given: scFv part; template fusion not stated, part only) [small subunit mutant fusion protein RD-099] |
|  |  | 16300 RLU | 3000 RLU | 5.4 |  |  |  |  |  | VSGYRLFDRKS (peptide, part only; not given: rSCFV18 scFv part, part only) [rSCFV18-small subunit mutant fusion protein RC-228] |
|  |  | 7220 RLU | 1620 RLU | 4.5 |  |  |  |  |  | VSGYRLFDKKW (peptide, part only; not given: rSCFV18 scFv part, part only) [rSCFV18-small subunit mutant fusion protein RC-261] |
|  |  | 10800 RLU | 2190 RLU | 5 |  |  |  |  |  | VEGWRLFDRVS (peptide, part only; not given: rSCFV18 scFv part, part only) [rSCFV18-small subunit mutant fusion protein RC-237] |
|  |  | 12000 RLU | 2070 RLU | 5.8 |  |  |  |  |  | VSGYRIFEKKS (peptide, part only; not given: rSCFV18 scFv part, part only) [rSCFV18-small subunit mutant fusion protein RC-129] |
|  |  | 7240 RLU | 921 RLU | 7.9 | 6.3 | 5000 | 4940 | 4980 | 5160 | VEGYRLFDRKS (peptide, part only; not given: rSCFV18 scFv part, part only) [rSCFV18-small subunit mutant fusion protein RC-218] |
|  |  | 5770 RLU | 593 RLU | 9.7 |  |  |  |  |  | VEGYRLFEKVS (peptide, part only; not given: rSCFV18 scFv part, part only) [rSCFV18-small subunit mutant fusion protein RC-042] |

same assay, conditions: not given

| normalised luminescence at PCT 30 pg/ml | normalised luminescence at PCT 100 pg/ml | normalised luminescence at PCT 1000 pg/ml | normalised luminescence at PCT 10000 pg/ml | normalised luminescence at PCT 100000 pg/ml | normalised luminescence at PCT 250000 pg/ml | luminescence at PCT 0 pg/ml | luminescence at PCT 1.37 pg/ml | luminescence at PCT 4.12 pg/ml | luminescence at PCT 12.35 pg/ml | Binder |
| --- | --- | --- | --- | --- | --- | --- | --- | --- | --- | --- |
| 5650 | 7130 | 28800 | 241000 | 1.56e+06 | 2.23e+06 |  |  |  |  | VDGYRLFEKVS (peptide, part only; not given: rSCFV18 scFv part, part only) [rSCFV18-small subunit mutant fusion protein RC-263] |
| 5410 | 6700 | 27600 | 236000 | 1.44e+06 | 2.01e+06 |  |  |  |  | VEGYRIFEKKW (peptide, part only; not given: rSCFV18 scFv part, part only) [rSCFV18-small subunit mutant fusion protein RC-286] |
|  |  |  |  |  |  | 288 | 301 | 332 | 407 | VEGYRLFDKKW (peptide, part only; not given: rSCFV18 scFv part, part only) [rSCFV18-small subunit mutant fusion protein RB239] |
| 5700 | 7490 | 31600 | 266000 | 1.76e+06 | 2.44e+06 |  |  |  |  | VEGYRLFDRKS (peptide, part only; not given: rSCFV18 scFv part, part only) [rSCFV18-small subunit mutant fusion protein RC-218] |

same assay, conditions: not given

| luminescence at PCT 37.04 pg/ml | luminescence at PCT 111.1 pg/ml | luminescence at PCT 333.3 pg/ml | luminescence at PCT 1000 pg/ml | Binder |
| --- | --- | --- | --- | --- |
| 590 | 1320 | 3360 | 8950 | VEGYRLFDKKW (peptide, part only; not given: rSCFV18 scFv part, part only) [rSCFV18-small subunit mutant fusion protein RB239] |
